# B1: Purified C-reactive protein (CRP) (other)
# chain: QTDMSRKAFVFPKESDTSYVSLKAPLTKPLKAFTVCLHFYTELSSTRGYSIFSYATKRQDNEILIFWSKDIGYSFTVGGSEILFEVPEVTVAPVHICTSWESASGIVEFWVDGKPRVRKSLKKGYTVGAEASIILGQEQDSFGGNFEGSQSLVGDIGNVNMWDFVLSPDEINTIYLGGPFSPNVLNWRALKYEVQGEVFTKPQLWP
# Biological target: T1, SARS-CoV-2 Nucleocapsid protein, His Tag (SARS-CoV-2, UniProt P0DTC9 1-419)
# T1 construct: Bought
# Assay: ELISA, His-tagged viral protein captured on nickel plates (6.25-50 pmol/mL)
binder,measurement,value
B1,binding result,no binding (tested: CRP 3 µg/mL (25 nM))
